Results as given in PMC10397247.
One block for each binder: values may come before it.

Legend:
[1] = target: T1, 4H3354-bN; test: two-hybrid library CCNG1;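 note: natural log of median RNA to DNA barcode read ratio; higher means stronger binding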
T1 chain: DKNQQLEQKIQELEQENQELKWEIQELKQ

[2] = target: T2, 4H338-bN; test: two-hybrid library CCNG1;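 note: natural log of median RNA to DNA barcode read ratio; higher means stronger binding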
T2 chain: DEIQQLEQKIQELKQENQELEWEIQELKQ

[3] = target: T3, 4H3427-bN; test: two-hybrid library CCNG1;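 note: natural log of median RNA to DNA barcode read ratio; higher means stronger binding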
T3 chain: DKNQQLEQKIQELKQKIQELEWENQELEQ

[4] = target: T4, 4H3782-bN; test: two-hybrid library CCNG1;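 note: natural log of median RNA to DNA barcode read ratio; higher means stronger binding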
T4 chain: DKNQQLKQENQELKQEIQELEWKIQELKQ

[5] = target: T5, 4H3855-bN; test: two-hybrid library CCNG1;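 note: natural log of median RNA to DNA barcode read ratio; higher means stronger binding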
T5 chain: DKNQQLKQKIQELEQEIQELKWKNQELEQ

[6] = target: T6, 4H4001-bN; test: two-hybrid library CCNG1;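 note: natural log of median RNA to DNA barcode read ratio; higher means stronger binding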
T6 chain: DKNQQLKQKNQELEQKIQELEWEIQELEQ

[7] = target: T7, 4H454-bN; test: two-hybrid library CCNG1
T7 chain: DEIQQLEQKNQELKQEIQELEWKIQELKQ

[8] = target: T8, 4H568-bN; test: two-hybrid library CCNG1
T8 chain: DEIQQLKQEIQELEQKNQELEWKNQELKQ

[9] = target: T9, 4H607-bN; test: two-hybrid library CCNG1
T9 chain: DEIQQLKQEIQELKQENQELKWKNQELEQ

[10] = target: T10, 4H687-bN; test: two-hybrid library CCNG1
T10 chain: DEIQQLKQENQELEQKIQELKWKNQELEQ

[11] = target: T11, 4H717-bN; test: two-hybrid library CCNG1
T11 chain: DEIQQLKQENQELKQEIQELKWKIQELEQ

[12] = target: T12, 4H72-bN; test: two-hybrid library CCNG1
T12 chain: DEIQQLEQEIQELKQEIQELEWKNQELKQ

[13] = target: T13, 4H754-bN; test: two-hybrid library CCNG1
T13 chain: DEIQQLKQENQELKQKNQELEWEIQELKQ

[14] = target: T14, 4H797-bN; test: two-hybrid library CCNG1
T14 chain: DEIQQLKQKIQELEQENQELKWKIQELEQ

[15] = target: T15, 4H883-bN; test: two-hybrid library CCNG1
T15 chain: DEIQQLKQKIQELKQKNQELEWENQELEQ

[16] = target: T16, 4H908-bN; test: two-hybrid library CCNG1
T16 chain: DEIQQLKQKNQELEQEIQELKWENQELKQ

[17] = target: T17, 4H918-bN; test: two-hybrid library CCNG1
T17 chain: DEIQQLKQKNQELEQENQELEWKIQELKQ

[18] = target: T18, 4H953-bN; test: two-hybrid library CCNG1
T18 chain: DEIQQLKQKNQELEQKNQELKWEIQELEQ

[19] = target: T19, 4H967-bN; test: two-hybrid library CCNG1
T19 chain: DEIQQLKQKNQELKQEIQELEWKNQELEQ

[20] = target: T20, 4H3628-bA; test: two-hybrid library CCNG1
T20 chain: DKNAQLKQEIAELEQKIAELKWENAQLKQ

[21] = target: T21, 4H3817-bA; test: two-hybrid library CCNG1
T21 chain: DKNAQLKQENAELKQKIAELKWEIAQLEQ

[22] = target: T22, 4H3858-bA; test: two-hybrid library CCNG1
T22 chain: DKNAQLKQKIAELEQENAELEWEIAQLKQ

[23] = target: T23, 4H3926-bA; test: two-hybrid library CCNG1
T23 chain: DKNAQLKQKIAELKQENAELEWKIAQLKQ

[24] = target: T24, 4H3974-bA; test: two-hybrid library CCNG1
T24 chain: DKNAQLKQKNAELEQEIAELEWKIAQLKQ

[25] = target: T25, 4H570-bA; test: two-hybrid library CCNG1
T25 chain: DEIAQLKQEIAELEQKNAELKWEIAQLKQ

[26] = target: T26, 4H591-bA; test: two-hybrid library CCNG1
T26 chain: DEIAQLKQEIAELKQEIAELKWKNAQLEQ

[27] = target: T27, 4H626-bA; test: two-hybrid library CCNG1
T27 chain: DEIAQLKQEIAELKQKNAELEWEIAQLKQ

[28] = target: T28, 4H850-bA; test: two-hybrid library CCNG1
T28 chain: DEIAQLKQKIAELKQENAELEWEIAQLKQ

[29] = target: T29, 4H906-bA; test: two-hybrid library CCNG1
T29 chain: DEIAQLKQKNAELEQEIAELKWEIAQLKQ

[30] = target: T30, P6SC2; test: two-hybrid library CC1
T30 chain: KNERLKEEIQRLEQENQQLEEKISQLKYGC

[31] = target: T31, P6mS; test: two-hybrid library CC1; conditions: mean of both orientations
T31 chain: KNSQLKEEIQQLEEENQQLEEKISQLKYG

[32] = target: T32, P7; test: two-hybrid library CC1; conditions: mean of both orientations
T32 chain: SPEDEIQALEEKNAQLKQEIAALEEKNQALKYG

[33] = target: T33, P7mS; test: two-hybrid library CC1; conditions: mean of both orientations
T33 chain: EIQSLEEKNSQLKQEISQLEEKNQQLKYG

[34] = target: T34, P8; test: two-hybrid library CC1; conditions: mean of both orientations
T34 chain: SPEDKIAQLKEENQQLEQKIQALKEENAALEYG

[35] = target: T35, P8mS; test: two-hybrid library CC1; conditions: mean of both orientations
T35 chain: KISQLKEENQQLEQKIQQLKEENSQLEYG

[36] = target: T36, P9; test: two-hybrid library CC1; conditions: mean of both orientations
T36 chain: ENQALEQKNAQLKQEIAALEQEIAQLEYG

[37] = target: T37, O6; test: two-hybrid library CCNG1
T37 chain: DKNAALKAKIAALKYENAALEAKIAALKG

[38] = target: T38, O7; test: two-hybrid library CCNG1
T38 chain: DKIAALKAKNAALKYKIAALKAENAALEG

[39] = target: T39, O8; test: two-hybrid library CCNG1
T39 chain: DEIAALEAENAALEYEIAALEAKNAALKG

[40] = target: T40, O9; test: two-hybrid library CCNG1
T40 chain: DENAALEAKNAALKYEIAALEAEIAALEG

B1: 4H3354-bN (peptide)
chain: DKNQQLEQKIQELEQENQELKWEIQELKQ
interaction score [1]: 1.43 | interaction score [2]: -0.511 | interaction score [3]: -0.405 | interaction score [4]: -1.06 | interaction score [5]: -0.269 | interaction score [6]: -0.318 | interaction score [7]: -0.726 | interaction score [8]: -0.364 | interaction score [9]: -0.0582 | interaction score [10]: -1.25 | interaction score [11]: -0.894 | interaction score [12]: -1.09 | interaction score [13]: -0.289 | interaction score [14]: -0.685 | interaction score [15]: -0.871 | interaction score [16]: -0.992 | interaction score [17]: -0.605 | interaction score [18]: -0.946 | interaction score [19]: -1.24

B3: P6SC2 (peptide)
chain: T30 chain
interaction score [30]: -2.13 | interaction score [31]: -2.75 | interaction score [32]: 0.0928 | interaction score [33]: -1.75 | interaction score [34]: -1.84 | interaction score [35]: -2.54 | interaction score [36]: -1.47

Other lines, results leading:

interaction score [20]: 0.549 | interaction score [21]: 0.612 | interaction score [22]: -0.214 | interaction score [23]: 0.307 | interaction score [24]: 1.31 | interaction score [25]: -0.226 | interaction score [26]: -0.511 | interaction score [27]: -1.6 | interaction score [28]: 0.124 | interaction score [29]: -0.866
B2: 4H3628-bA (peptide)
chain: DKNAQLKQEIAELEQKIAELKWENAQLKQ

interaction score [37]: -2.52 | interaction score [38]: -2.14 | interaction score [39]: -1.47 | interaction score [40]: -0.62
B4: O6 (peptide)
chain: DKNAALKAKIAALKYENAALEAKIAALKG
